Read-outs that look alike come from different tables or passages of the source.
Experiments:
[1] = target: T1, biotinylated GPC3-51mer fragment (human, biotinylated (site not stated)); assay: phage ELISA on biotinylated GPC3-51mer
T1 construct: Synthesized by Elim Biopharmaceuticals; also called bt-GPC3-51mer; hGPC3-51mer fragment
T1 peptide: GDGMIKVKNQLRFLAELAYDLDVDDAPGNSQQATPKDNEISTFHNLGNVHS

[2] = target: T2, cell surface-bound human GPC3 on GPC3+ HepG2 cells (human, UniProt P51654 25-560, GPI anchor and heparin sulfate side chains, as the filing describes native GPC3); assay: flow cytometry at 10 µg/mL, PE anti-mouse IgG detection
T2 construct: Endogenous GPC3 of the HepG2 line; also called Glypican 3; native GPC3
Procedure: Anti-GPC3 mIgG1 antibodies were tested for the binding towards GPC3-positive HepG2 and GPC3-negative SK-Hep1 cells by flow cytometry. 10 μg/mL of constructed antibody was added to cells on ice for 1 hour.

[3] = target: T2, cell surface-bound human GPC3 on GPC3+ …; assay: FACS, phage on GPC3+ HepG2 cells
Procedure: The E-APLPHA™ scFv phage libraries were screened (panned) against human GPC3 by co-incubation with recombinant GPC3-expressing SK-Hep1 cells (SK-Hep1-GPC3), then confirmed by binding to GPC3+ HepG2 cells, both with flow cytometry (see Methods). 0.2 million SK-Hep1-GPC3 cells were co-incubated with the phage library (about 1×10⁷ pfu) for 1 hours at 4° C. The cell/phage mixture was washed in PBST, incubated with mouse anti-M13 antibody for 1 hour at 4° C., washed again in PBST, then incubated for 30 minutes in the dark at 4° C. with PE-conjugated anti-mouse IgG, and subjected to FACS analysis.
FACS was performed as described in Methods. […] Then cells were washed with PBS and fixed.

[4] = target: T3, biotinylated recombinant human GPC3(560) (human, biotin on the C-terminal BirA substrate peptide ; Biotin on a lysine of the C-terminal BirA substrate peptide, which is not in the letters.); assay: SPR, Biacore X100, single-cycle kinetics, bt-GPC3(560) captured on chip, 1:1 model
T3 construct: Made in E. coli BL21 (pET-27b) from inclusion bodies and biotinylated with BirA; also called bt-GPC3(560); soluble bt-GPC3(560) protein
Procedure: All of the proteins used in the assay were diluted in HBS-E buffer prior to use. Briefly, 5-10 μg/ml of bt-GPC3₍₅₆₀₎ was immobilized onto a sensor chip pre-functionalized with CAPture Reagent and injected onto the flow cell. Affinity of the L2K bispecific antibodies for immobilized antigen was measured by injection of the various bispecific antibodies at 0.3-5 mg/ml with a 90 second association phase followed by a 90 second dissociation phase at a flow rate of 30 μl/min. At the end of each run, the surface of the sensor chip was regenerated using the reagents provided in the Biotin CAPture kit. Binding constants were determined by nonlinear regression analysis using a 1:1 binding model (BIACORE™ X-100 evaluation software, FIGS. 15A and 15B). The association-on-rate-kₒₙ, affinity constant-kₐ, dissociation constant-kd, and equilibrium dissociation constant-Kd were then calculated for each L2K clone (Table 14).

[5] = target: T2, cell surface-bound human GPC3 on GPC3+ …; assay: FACS on GPC3+ HepG2 cells, labelled on the sheet GPC3A L2K against control L2K; control L2K median 93.8; axis PE-A
Procedure: (§1) APC-conjugated anti-His tag mouse antibody (R&D Systems) was added in a volume of 100 μl, a 20-fold dilution of 5% FBS in PBS and 0.05% NaN₃ and incubated for 1 hour at 4° C. in the dark, then washed twice with PBS. The cells were fixed in 3-fold dilution of fixation buffer (BioLegend) in PBS in a volume of 150 μl.

[6] = target: T2, cell surface-bound human GPC3 on GPC3+ …; assay: apparent Kd from FACS on GPC3+ HepG2 cells
Procedure: (§2) APC-conjugated anti-His tag mouse antibody (R&D Systems) was added in a volume of 100 μl, a 20-fold dilution of 5% FBS in PBS and 0.05% NaN₃ and incubated for 1 hour at 4° C. in the dark, then washed twice with PBS. The cells were fixed in 3-fold dilution of fixation buffer (BioLegend) in PBS in a volume of 150 μl. As a separate control, HepG2 cells were also incubated with APC-conjugated anti-His tag mouse antibody (R&D Systems) in the absence of any L2K bispecific antibody.

[7] = target: T2, cell surface-bound human GPC3 on GPC3+ …; assay: FACS titration on GPC3+ HepG2 cells, anti-His detection
Procedure: as §2

[8] = target: T4, full-length human GPC3 over-expressed on SK-Hep1-GPC3 cells (human, UniProt P51654 25-560); assay: FACS, GPC3A L2K on SK-Hep1-GPC3 cells, APC anti-His; same L2K on GPC3-negative SK-Hep1 median 61.6
T4 construct: also called GPC3 over-expressing SK-Hep1 cells
Procedure: Cells were then washed once with PBS. APC-conjugated anti-His tag mouse antibody (R&D Systems) was added to the washed cells in a volume of 100 μl, at 20-fold dilution of 5% FBS in PBS and 0.05% NAN₃ and incubated for 1 hour at 4° C. in the dark. The cells were then washed twice with PBS. The cells were fixed in 3-fold dilution of fixation buffer (BioLegend) in PBS in a volume of 150 μl.

[9] = target: T2, cell surface-bound human GPC3 on GPC3+ …; assay: FACS on GPC3+ HepG2 cells, labelled on the sheet GPC3A L2K against control L2K; control L2K median 93.8; axis PE-A; remark: listed apart in the source
Procedure: as §1

[10] = target: T2, cell surface-bound human GPC3 on GPC3+ …; assay: apparent Kd from FACS on GPC3+ HepG2 cells; the row is GC33 L2K by paragraph 806
Procedure: as §2

[11] = target: T2, cell surface-bound human GPC3 on GPC3+ …; assay: FACS titration on GPC3+ HepG2 cells, anti-His detection; the row is GC33 L2K by paragraph 806
Procedure: as §2

biotinylated rat GPC3 = target: T5, biotinylated rat GPC3 (rat, UniProt P13265 25-558, limits assumed, biotinylated (site not stated)); assay: ELISA, biotinylated rat GPC3 on streptavidin plate
T5 construct: also called rat bt-GPC3; rat GPC3 peptide
T5 sequence (P13265 25-558 limits assumed): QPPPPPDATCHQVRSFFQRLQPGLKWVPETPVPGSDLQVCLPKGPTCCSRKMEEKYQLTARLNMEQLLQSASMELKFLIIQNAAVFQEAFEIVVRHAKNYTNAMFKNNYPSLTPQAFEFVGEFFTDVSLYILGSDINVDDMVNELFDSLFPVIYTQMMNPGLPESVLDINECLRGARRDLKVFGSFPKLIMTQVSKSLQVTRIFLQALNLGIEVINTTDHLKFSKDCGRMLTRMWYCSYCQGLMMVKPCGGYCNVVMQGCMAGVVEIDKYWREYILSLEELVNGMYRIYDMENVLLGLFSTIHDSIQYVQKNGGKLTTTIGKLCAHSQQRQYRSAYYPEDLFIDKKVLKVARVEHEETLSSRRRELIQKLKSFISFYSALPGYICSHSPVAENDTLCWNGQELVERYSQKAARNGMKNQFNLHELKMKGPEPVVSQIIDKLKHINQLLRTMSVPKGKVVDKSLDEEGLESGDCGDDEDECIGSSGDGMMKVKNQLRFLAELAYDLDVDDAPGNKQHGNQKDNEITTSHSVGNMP

B1: GPC3A-43 phage clone (scFv)
scFv: QSVLTQPPSASGTPGQRVTISCSGSSSNIGTNYVYWYQQLPGTAPKLIIYRNNQRPSGVPDRFSGSESGTSASLAISGLRSEDEADYYCAVWDDSLSGVVFGGGTKLTVLGSRGGGGSGGGGSGGGGSLEMAEVQLVQSGAEVKKPGATVKVSCKVSGYTFTDYYMHWVQQAPGKGLEWMGLVDPEDGETIYAEKFQGRVTITADTSTDTAYMELSSLRSEDTAVYYCARELRDVAYYPWGVEDFWGQGTLVTVSS
notes: also called GPC3A-043
- binding result [1]: no binding

B2: anti-GPC3 mIgG1 clone A-51 (antibody, V domains shown)
VH: QVQLVQSGAEVKKPGSSVKVSCKASGGAFSSYAISWVRQAPGQGLEWMGGIIPIFGTANYAQKFQGRVTITADESTSTAYMELSSLRSEDTAVYYCARMLYLSGRYYWDSWGQGTLVTVSS
VL: QAVLTQPSSASGAPGQRVTISCTGGSSNIGAGYDVHWYQQLPGTAPKLLIYGNSNRPSGVPDRFSGSKSGTSASLAITGLQAEDEADYYCQSYDSSLSGYVFGTGTKVTVLG
notes: Fused to mouse IgG1 heavy chain and light chain constant regions
- binding result [2]: binds

B3: GPC3A-38 phage clone (scFv)
scFv: QSVLTQPPSVSVAPGKTARITCGGNNIGSKSVHWYQQKPGQAPVLVIYYDSDRPSGIPERFSGSNSGNTATLTISRVEAGDEADYYCQVWDSSSDHVVFGGGTKLTVLGSRGGGGSGGGGSGGGGSLEMAQVQLVQSGAEVKKPGASVKVSCKASGYTFTSYYMHWVRQAPGQGLEWMGIINPSGGSTSYAQKFQGRVTMTRDTSTSTVYMELSSLRSEDTAVYYCARKVTGYDSWGQGTLVTVSS
notes: also called GPC3A-038
- binding result [3]: binds

B4: GPC3A-62 phage clone (scFv)
scFv: QSVLTQPPSVSGAPGQRVTISCTGSSSNIGAGYDVHWYQQLPGTAPKLLIYGNSNWPSGVPDRFSGSKSGTSASLAITGLRAEDEADYYCQSYDSSLSGSYVFGTGTKVTVLGSRGGGGSGGGGSGGGGSLEMAQMQLVQSGSELKKPGASVKVSCKASGGTFSSYAISWVRQAPGQGLEWMGGIIPKIGTANYAQKFQGRVTITADESTSTAYMELSSLRSEDTAMYYCARMYMDMGWGWGYWDWWGQGTLVTVSS
notes: also called GPC3A-062
- binding result [3]: binds

B5: anti-GPC3 mIgG1 clone A-64 (antibody, V domains shown)
VH: QMQLVQSGAEVKKPGASVKVSCKASGYTFTIYGISWVRQAPGQGLEWMGWISPYNDNTIYAQKVQGRVTMTTDTSTSTAYMELRSLRSDDTAVYYCARMGVGWGYAQDSWGQGTLVTVSS
VL: LPVLTQPPSLSVAPGKTARLTCGGNNIGSKSVHWYHQKPGQAPVLVVYDDTDRPSGIPERFSGSNSGNTAALTISRVEVGDEADYYCQVWDRSSAHWVFGGGTKLTVLG
notes: as for B2
- binding result [2]: binds

B6: GPC3A-46 L2K (bispecific antibody)
chain: QAVLTQPPSVSGTPGQRVTISCSGSSSNFGSNTVHWYQQVPGTAPKLLIFSNTQRPSEIPDRFSGSKSGTSASLAISGLQSEDEADYYCAAWDDSLTGVVFGGGTKLTVLGSRGGGGSGGGGSGGGGSLEMAQVQLVQSGAEVKKPGASVTVSCKASGYRFSNYGVSWVRQAPGQGLEWMGWISGSNGNTNYAQKFLGRVTMTTDTSTTTAYMELSSLRSDDTAVYYCARGNRRYYSPIIDPWGQGTLVTVSSTSGGGGSDVQLVQSGAEVKKPGASVKVSCKASGYTFTRYTMHWVRQAPGQGLEWIGYINPSRGYTNYADSVKGRFTITTDKSTSTAYMELSSLRSEDTATYYCARYYDDHYCLDYWGQGTTVTVSSGEGTSTGSGGSGGSGGADDIVLTQSPATLSLSPGERATLSCRASQSVSYMNWYQQKPGKAPKRWIYDTSKVASGVPARFSGSGSGTDYSLTINSLEAEDAATYYCQQWSSNPLTFGGGTKVEIKHHHHHH
- Kd [4]: 3.2 nM
- koff [4]: 0.00129 s⁻¹
- kon [4]: 399000 M⁻¹ s⁻¹
- Median : PE-A [5]: 9860
- Kd [6]: 1 nM
- EC50 [7]: 0.05 µg/mL
- Median : APC-A [8]: 657

B7: #64 GPC3A L2K (bispecific antibody)
tandem di-scFv: LPVLTQPPSLSVAPGKTARLTCGGNNIGSKSVHWYHQKPGQAPVLVVYDDTDRPSGIPERFSGSNSGNTAALTISRVEVGDEADYYCQVWDRSSAHWVFGGGTKLTVLGSRGGGGSGGGGSGGGGSLEMAQMQLVQSGAEVKKPGASVKVSCKASGYTFTIYGISWVRQAPGQGLEWMGWISPYNDNTIYAQKVQGRVTMTTDTSTSTAYMELRSLRSDDTAVYYCARMGVGWGYAQDSWGQGTLVTVSSTSGGGGSDVQLVQSGAEVKKPGASVKVSCKASGYTFTRYTMHWVRQAPGQGLEWIGYINPSRGYTNYADSVKGRFTITTDKSTSTAYMELSSLRSEDTATYYCARYYDDHYCLDYWGQGTTVTVSSGEGTSTGSGGSGGSGGADDIVLTQSPATLSLSPGERATLSCRASQSVSYMNWYQQKPGKAPKRWIYDTSKVASGVPARFSGSGSGTDYSLTINSLEAEDAATYYCQQWSSNPLTFGGGTKVEIKHHHHHH
notes: also called GPC3A-64 L2K; GPC3-64 L2K
- Median : PE-A [9]: 6600

B8: GC33 L2K (bispecific antibody, V domains shown)
VH: QVQLQQSGAELVKPGASVKLSCKASGYTFTDYEMHWVKQTPVHGLKWMIGALDPKTGDTAYSQKFKGKATLTADKSSSTAYMELRSLTSEDSAVYYCTRFYSYTYWGQGTLVTVSA
VL: DVVMTQTPLSLPVSLGDQASISCRSSQSLVHSNGNTYLHWYLQKPGQSPKLLIYKVSNRFSGVPDRFSGSGSGTDFTLKISRVEAEDLGVYFCSQNTHVPPTFGSGTKLEIK
notes: Tested as a single-chain tandem di-scFv: scFv of GC33 fused to an anti-human CD3 epsilon scFv, with a hexahistidine tag; also called GC33 antibody converted to an L2K
- Kd [10]: 2.7 nM
- EC50 [11]: 0.14 µg/mL

B9: GPC3A-53 mIgG1 clone (antibody, V domains shown)
VH: QLQLQESGPGLVKPSETLSLTCTVSGGSISSSSYYWGWIRQPPGKGLEWIGSIYYSGSTYYNPSLKSRVTISVDTSKNQFSLKLSSVTAADTAVYYCARWWSGSYDTWGQGTLVTVSS
VL: QSVLTQPPSASAAPGQRVTISCSGTSSNIGSNYVWWYQQLPGAAPRLLIYGNSNRPSGVPDRFSGSKSGTSASLAITGLQAEDEADYYCQSYDSSLSGSNVFGTGTKVTVLG
notes: Mouse chimeric IgG1; also called GPC3A mIgG1 clone A-53
- binding result (biotinylated rat GPC3): no binding (tested: 5 µg/mL)

B10: GPC3A-37 phage clone (scFv)
scFv: QSVLTQPPSVSAAPGQRVTISCSGTRSNIGSDYVSWYQHLPGTAPKLLVYGDNLRPSGIPDRFSASKSGTSATLGITGLQTGDEADYYCGTWDYTLNGVVFGGGTKLTVLGSRGGGGSGGGGSGGGGSLEMAQVQLVESGGGLVQPGGSLRLSCAASGFTFSSYAMSWVRQAPGKGLEWVSVIYSGGSSTYYADSVKGRFTISRDNSKNTLYLQMNSLRAEDTAVYYCARTSYLNHGDYWGQGTLVTVSS
notes: also called GPC3A-037
- binding result [1]: no binding

B11: GPC3A-58 L2K (bispecific antibody)
chain: QSVLTQPPSVSVAPGKTARITCGGNNIGSKSVHWYQQKPGQAPVLVVYDDSDRPSGIPERFSGSNSGNTATLTISRVEAGDEADYYCQVWDSSSDHVFGTGTKVTVLGSRGGGGSGGGGSGGGGSLEMAQVQLVQSGADVRKPGASVKVSCKASGYTFASHGISWVRQAPGQGLEWLGWISPYTGNTNYAQKFQGRVTMATDTSTSTAYMELRSLRSDDTAIYYCARGKRTLASCFDYWGQGTLVTVSSTSGGGGSDVQLVQSGAEVKKPGASVKVSCKASGYTFTRYTMHWVRQAPGQGLEWIGYINPSRGYTNYADSVKGRFTITTDKSTSTAYMELSSLRSEDTATYYCARYYDDHYCLDYWGQGTTVTVSSGEGTSTGSGGSGGSGGADDIVLTQSPATLSLSPGERATLSCRASQSVSYMNWYQQKPGKAPKRWIYDTSKVASGVPARFSGSGSGTDYSLTINSLEAEDAATYYCQQWSSNPLTFGGGTKVEIKHHHHHH
notes: also called GPC3A L2K bispecific antibody #58
- Kd [4]: 5.1 nM
- koff [4]: 0.00188 s⁻¹
- kon [4]: 368000 M⁻¹ s⁻¹
- Median : PE-A [9]: 8030
- Kd [6]: 2.4 nM
- EC50 [7]: 0.12 µg/mL

B12: GPC3A-42 phage clone (scFv)
scFv: SYVLTQPPSASGTPGQRVTISCFGSSSDIGSNSVFWYQQLPGAAPKLLIYSTQYRPSGVPDRFSGSKSGTSASLAISGLQSEDEAEYHCATWDDSLNGYVFGSGTKVTVLGSRGGGGSGGGGSGGGGSLEMAQVQLQQSGAEVKKPGASVKVSCKASGYSFTGYYVYWMRQAPGKGLEWMGWMNPRSGGTNYAQKFQGRVTMTRDTSISTAYMELSRLTSDDTAVYYCARSSYYWADSWGQGTLVTVSS
notes: also called GPC3A-042
- binding result [1]: no binding

— patent US20230048360A1 (EUREKA THERAPEUTICS, published 2023)
